According to paper PMC11063326, “2-oxoglutarate-dependent dioxygenases and BAHD acyltransferases drive the structural diversification of orobanchol in Fabaceae plants” (Frontiers in Plant Science, 2024):

Substrate: CC1=C[C@H](O/C=C2/C(=O)O[C@@H]3[C@H]2[C@@H](O)[C@]24CCCC(C)(C)[C@]32O4)OC1=O
Assay: product formation (fabacyl acetate) by LC-MS/MS, crude recombinant enzyme
Format: biochemical, Lathyrus oleraceus
Details: 200 μM acetyl-CoA, 50 mM citrate pH 6.0, 30°C
Text: product formation (fabacyl acetate) by LC-MS/MS, crude recombinant enzyme on PsFAT (fabacol acetyltransferase, Psat7g079960)

B1: PsFAT (fabacol acetyltransferase, Psat7g079960) (Lathyrus oleraceus) (protein)
chain: MEMEIISREFIKPSSPTPPHLRNFPISFIDHITFRYYVPLLFFYNDTKVSDQKSKISHLKSSLSQILSIYYPFAGRFKDQRSIECNDQGVLFLVANITGIKLSTILENPDEKLFDHLFPDQLQWKLMEWNESILVVQINCFACGGIVISVCTCHKIIDATTAFNFVNDWSKLNREQESESKSTSASLLPYNLLYAGDTIFSLGNLPKFPEVDFAIDKTIVCKRFVFEASKIKLLKNLVNFNSHVVENPTRVEVITALIYKCVVSTLGLNFKTTSLQIAVNLRKRMIPPLSNKCVGNLVWILFVMNPELHDLVFRIRQGLSEFCEVYPKKFGGKEKDSSFICECLKQVTTRVSESDNNQSLIAYASWCKFPMYEADFGWGKPIWVTTSACPARNAVILMDTRDGDGIEVIVSMKKNDMVRFECDVELLQYASVNPSITS
notes: complete CDS from root cDNA, modified pCold III, E. coli BL21(DE3) with GroES/GroEL; crude E. coli extract
Km: 0.287 ± 0.076 µM
Vmax: 0.00745 µM/min
